# Assay results published in the DeepSol protein solubility set.
# Assay: soluble on expression in E. coli; label from the status in PepcDB or PDB records
row,Sequence,soluble on expression in E. coli
1,MGSDKIHHHHHHMKSPCILLIIVCTLSLTGCASTKQADSDSSLGKAQQTLDSLYQHYSAKDSYLLRENYPFNEQYKVTYLASENQTNMPNQFSYLWPYSGTFSAVNSLLEATHDKKYQQLLEKQVLPGLEEYFDTERTPIAYSSYIRTAPTSDRFYDDNIWVGIDFIDIYQITKEKKYLDKAQLIWNFIESGTDSLLGDGIYWCEQKKESKNTCSNAPGSVFALKLFKATNDSLYFKRGKELYKWTQKNLQDSTDYLYFDNIRLDGKIGKAKFAYNSGQMMQSAALLYQLTKNPDYLKDAQSIAKECYNYFFTDFTTDTGESLKMLKQGNIWFTAVMLRGFIELYQLDQNKTFIDAFNQCLSYAWDNARDENGLFSTDLTGNNNNEKKWLLTQAAMVEMYSRLATIQ,not soluble
2,MMNKLPHETRVVIGMSGGVDSSVAALLLKEQGYDVIGIFMKNWDDTDENGVCTATEDYNDVIEVCNQIGIPYYAVNFEKQYWDKVFTYFLDEYRAGRTPNPDVMCNKEIKFKAFLEHAIALGADYVATGHYARVAYMDGEYKMLRGVDDNKDQTYFLNQLSQEQLSKTMFPLGELKKPQIREMAKEAGLATAAKKDSTGICFIGERNFKDFLSNYLPAQPGVMQTLSGEVKGKHDGLMYYTIGQRHGLGIGGNGDPWFAVGKNLKENILYVDQGFHNELLYGDEVIATNVGWVSNKEKETEFKCTAKFRYRQEDNKVTVQIVDENTVRILCDEPIRAITPGQAVVFYDGDECLGGATIDEVYRSGKKLDYLG,not soluble
3,MVVSIITPLYKVEDFIARCADSLFRQSYTEIEYIFVDDCSSDRSVEVLLQVAERYPQLQQQIRILHHESNRGVAAARETGLAAATGEYVYWVDADDWIEPDAIEKMVVRSEQGQKDIIACGWYLCFRQNERRMPMPCYADAETALRGMLSGTMRWNLWLYMIKRDLYLMNDIHFMEGENVGEDMLVLIKLFSHAKSIGFVKDAFYHYVKQNENSLTRLSPEQQMKRQMRNLQAATDYLVTHFIGKYEKEINFFKLNAKMPLLISNDKNSYRTWTACFPEANKYIMANKRQTLRMRLVQLMAAKRQFWLVELYYQLVFKFVYGILYK,not soluble
4,MGHHHHHHSHMSQQRPDRIKQMLHYLWQHRHLSTQQAMELFGYAEATVRRDFQYIVNQYPGMIRGHGCLDFDDSTDDKEYVFDVKRTLQSVAKREIAALARTMIKDGDCFFLDSGSTCLELAKCLADARVKVICNDIKIANELGCFPHVESYIIGGLIRPGYFSVGESLALEMINAFSVERAFISCDALSLETGITNATMFEVGVKTRIIQRSREVILMADHSKFDAVEPHAVATLSCIKTIISDSGLPETIAQRYQRAGCQLFLPHSIK,soluble
5,MAADLSAYPDRESELTHALAAMRSRLAAAAEAAGRNVGEIELLPITKFFPATDVAILFRLGCRSVGESREQEASAKMAELNRLLAAAELGHSGGVHWHMVGRIQRNKAGSLARWAHTAHSVDSSRLVTALDRAVVAALAEHRRGERLRVYVQVSLDGDGSRGGVDSTTPGAVDRICAQVQESEGLELVGLMGIPPLDWDPDEAFDRLQSEHNRVRAMFPHAIGLSAGMSNDLEVAVKHGSTCVRVGTALLGPRRLRSP,not soluble
6,NAQARFSQNLLDQGSHPTSEKLLSVLRPASGHVADALGITEGENVIHLRTLRRVNGVALCLIDHYFADLTLWPTLQRFDSGSLHDFLREQTGIALRRSQTRISARRAQAKECQRLEIPNMSPLLCVRTLNHRDGESSPAEYSVSLTRADMIEFTMEH,soluble
7,GIPRNSRVDSDDFLWFEGIAFPTMGFRSETLRKVRDEFVIRDEDVIILTYPKSGTNWLAEILCLMHSKGDAKWIQSVPIWERSPWVESEIGYTALSETESPRLFSSHLPIQLFPKSFFSSKAKVIYLMRNPRDVLVSGYFFWKNMKFLKKPKSWEEYFEWFCQGTVLYGSWFDHIHGWMPMREEKNFLLLSYEELKQDTGRTIEKICQFLGKTLEPEELNLILKNSSFQSMKENKMSNYSLLSVDYVVDKTQLLRKGVSGDWKNHFTVAQAEDFDKLFQEKMADLPRELFPWE,soluble
8,MSLNKYEPLFKSLTLPNGVEVRNRFVLAPLTHTSSNDDGTISDIELPYIEKRSKDVGIAINAASNVNDVGKAFPGQPSVAHDSDIEGLKELAQVMKKNGAKAIVQIHHGGAQALPELTPDGDVVAPSAISLKSFGQQKEHDAREMTAEEIEQTIRDFGEATRRAIEAGFDGVEIHGANHYLIHQFVSPYYNRRNDVWADNYKFPVAVIDEVVKAKKAHAYDDFIIGYRLSPEEAESPGISMEITEELIHQIANKPLDYIHVSLMDVNSVTREGKYKGENRLELIHQWINGRMPLIGIGSVFTAEDALNAVENIGVEFVALGCEILLDYDFVAKIKEGREDEIINAFDPNREDQHYLTPNLWEQFNQGFYPLPRKDKEGHHHHHH,soluble
9,MGSDKIHHHHHHMQSTALRYFLEVARCGSISEASVRLNVASSAVSRQISKLERELDALLFERQARGMMLSEAGIRLAAYARKSQLEAEQVVLEITELQGLQRGHVRIACSEGFALDFLPQCIARFRRLYQGIHFSMEVCAPAQATERVRSGDADLCLTFSLTPQNEIKVEHIHSGAICAVVSHNHPLASRKEVALAELQPYAIALTNTDTTLRQLFDICCGVQGLMFDPVLTSNYIGSLLRFVSEEGGISLSSEMTLDKRVHEKQLKSLPISDEGMKARRIELQSMAGRNLPAAVAAFRDFLIEELAKT,not soluble
10,MGSDKIHHHHHHMSTIIQNTLAPKVQNQLIHHLPALEQAELLSQAKLVQLNFADLLCQPGESYQYVYFPLTAFISLIAKLPKHPALEMGLIGYEGMLGATTLLSTRQVPSEAIIQGSGKAWRIPIATFEDLLAQSSSLRQILETYLYQLLCQLSQNAVCAHFHSVESRLARWLLMSHDRIQTNELFLTHQFLSDMLGVRRSSITEAAGELQASGCISYNRGRLYILDRQGLLARCCSCYHLMRT,not soluble
11,VFILPDCNPVLKFISSARERLLIIAPYIDFRWYKDDGLLEAIKGAKESGAEVKVVLNAKYAKEEAVSTLRKEGVKVELIDNLHGKAIVSDKRLLITSANMNMHGLKLNREIGVIINNPEMADAVIKEFEGGEVTPLD,not soluble
12,MDHAPERFDATPPAGEPDRPALGVLELTSIARGITVADAALKRAPSLLLMSRPVSSGKHLLMMRGQVAEVEESMIAAREIAGAGSGALLDELELPYAHEQLWRFLDAPVVADAWEEDTESVIIVETATVCAAIDSADAALKTAPVVLRDMRLAIGIAGKAFFTLTGELADVEAAAEVVRERCGARLLELACIARPVDELRGRLFF,not soluble
13,SFRKGKKRHSSSSSQSSEISTKSKSVDSSLGGLSRSSTVASLDTDSTKSSGQSNNNSDTCAEFRIKYVGAIEKLKLSEGKGLEGPLDLINYIDVAQQDGKLPFVPPEEEFIMGVSKYGIKVSTSDQYDVLHRHALYLIIRMVCYDDGLGVGKSLLALKTTDASNEEYSLWVYQCNSLEQAQAICKVLSTAFDSVLTSEKP,soluble
14,TQPPQPDAQSPYSKRYDPTKDYPLSSPAGGMNNFSDVEPRGRLDEKAATDRADALAKNAQRNIEQKGIDSPEQYGRNYKQGTPFGERVKNLGEDIGSSANELGEGVVKGTQRGIENLKGNTQNAAEDATKNVQRGAEDAGRNVRRTADDAGNAVKRAVD,not soluble
15,MSLSPFEHPFLSGLFGDSEIIELFSAKADIDAMIRFETALAQAEAEASIFADDEAEAIVSGLSEFAADMSALRHGVAKDGVVVPELIRQMRAAVAGQAADKVHFGATSQDVIDTSLMLRLKMAAEIIATRLGHLIDTLGDLASRDGHKPLTGYTRMQAAIGITVADRAAGWIAPLERHLLRLETFAQNGFALQFGGAAGTLEKLGDNAGAVRADLAKRLGLADRPQWHNQRDGIAEFANLLSLVTGTLGKFGQDIALMAEIGSEIRLSGGGGSSAMPHKQNPVNAETLVTLARFNAVQISALHQSLVQEQERSGAGWMLEWLTLPQMVTATGTSLLVAERLAAQIDRLGADESHHHHHH,soluble
16,MAAYQVLIVGAGFSGAETAFWLAQKGVRVGLLTQSLDAVMMPFLPPKPPFPPGSLLERAYDPKDERVWAFHARAKYLLEGLRPLHLFQATATGLLLEGNRVVGVRTWEGPPARGEKVVLAVGSFLGARLFLGGVVEEAGRLSEASYPDLLEDLSRLGFRFVEREGEVPETPSTPGYRVRYLAFHPEEWEEKTFRLKRLEGLYAVGLCVREGDYARMSEEGKRLAEHLLHELG,soluble
17,MAHHHHHHMRVLSLLSALCLVSTCRGHRNLFARNNYLQYLRSQNFMQEKPKFQKLNQNYSEDLNEFDNYEDDELDAENVEATSKERVTQKSGTSSSSSENKLEFKNIEKELNNMGEILHEEKDNLLLMGGGRECSVSDKGTLDVSLNSGDIFNLTKYTVEMSSSGILIRDTQNSNVVKEIAFDTVKLPIETIEETRECWKIRSHKETFLFCERSKEARDRWITNMLKALFCYNTNNLTIDEGVQTGLSSKVDIPKESTVDARIAASLKDEPNGSGDNSSHGRAKRKGNNNITISNLKNDKPEIVVN,not soluble
18,SSPATVTEPLKAEPAEAPVPLLRVSPSSLQCEPGYLLPNSPVLGTGGVTGYEYLTNILSSKVYDVAYETPLQKAPKLSERLGVNVLKREDLQPVFSFKIRGAYNMMAKLPKEQLEKGVICSSAGNHAQGVALSAQRLGCDAVIVMPVTTPDIKKSVKRLGATVVLVGDSYDEAQAYAKKRAESEGRTFIPPFDHPDVIVGQGTVGMEINRQLKDNIHAIFVPVGGGGLIAGIAAYLKRVAPDIKIIGVEPLDANALALSLHHGQRVMLDQVGGFADGVAVKVVGEETYRLCEELIDGVVLVGRDAICASIKDMFEEKRSILEPAGALALAGAEAYCKYYGLKGENVVAITSGANMNFDRLRLVTELADVGRQREAVLATFMPEDPGSFKKFAEMVGPMNITEFKYRYNSDKERALVLYSVGLHTILELEGMVERMESADLQTINLTDNDLVKDHLRHLMGGRTNVHNELLCRFTFPEKPGALMKFLDAFSPRNISLFHYRAQGDTGANVLVGIQVPPDEVVEFEGRADSLGYEYAMESLNEAYQLIMH,soluble
19,MGSDKIHHHHHHMAHYEVKPSFYNYVFSPYLEPAIKVNPGDTVSLYTDDAFESRITSEDVSPKAAVRNAKFLNPQSGPVYINGAEPGDTLAVHFESIEFTRDWAVSCVMEYFGGLQSNSITKMLQKPLVEEVYIWKSKDKGQTWTNDKIGVTIPANPFCGTLATAPDTEAIQALTPGQFGGNMDCPDICPGHTIYLPVHNPGALFYIGDCHAAQGQGELCGVALEISAKATLKFDVIKNKVTNWPRIESPEKIMSVGSAKPMEDAARIAYADLIDWMVSDYGFKVLDAYELLTMVGGLYVANMVDTTYSLCASIEKKYLKRNS,not soluble
20,MERVVINVSGLRFETQMKTLAQFPETLLGDPEKRTQYFDPLRNEYFFDRNRPSFDAILYYYQSGGRLKRPVNVPFDIFTEEVKFYQLG,soluble
21,MSLHAAAVGPSVLPDLREQVEQIIAEARRQGASACEVAVSLEQGLSTSVRQGEVETVEFNRDQGFGITLYAGQRKGSASTSATGEAAIRETVAAALAIARHTSEDECAGLADAALMARELPELDLYHPWSLSPEQAVERALACEAAAFAADKRVTKADGTTLNTHQGCRVYGNSHGFIGGYASTRHSLSCVMIAEGEGQMQRDYWYDVNRRGEALASAESIGRRAAERAASRLGARPVQTAEVPVLFAPEIAVGLFGHFLGAISGGSLYRKSSFLEGALGQRLFPEWLSIDERPHLVGALGSASFDSDGLATYAKPFVENGELVSYVLGTYSGRKLGLPSTANAGGVHNLFVSHGDEDQAALIRRMERGLLVTELMGQGVNLVTGDYSRGAAGYWVENGEIQFPVQEVTIAANLRDLFRRIVAVGKDIERRGNLHTGSVLVESMMVAGR,soluble
22,MKTFEELCQENYSRIYKYIFSMTGSKESTEDLIQEVFIAAYEKGEAFLRHEKPAAFLYKTARNMTVTYLKNLKRQRISAMEYLSENIPQDDTDLCETLLMELDRKIDETAYTGQVIGNLNTNQHNLYRQRYVEGKSIKEIASEEGVSETAMRMRLVRLRKEIQDIVKKLKLGEK,not soluble
